The text below walks through data of publication PMC3758481.

For assay [1], the target named is spin labeled L705C mutant of C99 (human) (UniProt P05067). The assay can be described thus: continuous wave EPR of spin labeled protein.
The target of assay [2] is spin labeled S697C mutant of C99 (human) (UniProt P05067). The assay can be described thus: continuous wave EPR of spin labeled protein.

As to “spin labeled L705C mutant of C99 (from UniProt P05067 672-770) (domain or fragment)”, the KD, average of four fits (sites S697C and L705C, two fields each) in assay [1] was 0.44 mol%.
In turn, “spin labeled S697C mutant of C99 (from UniProt P05067 672-770) (domain or fragment)” showed a KD, average of four fits (sites S697C and L705C, two fields each) in assay [2] of 0.44 mol%.
